Results on one molecule are retold here after patent US20110065647A1.

The target of this test is rNaV1.3 channels (rat), P08104. Kind of test: cell-based or functional assay.
Chain of rNaV1.3 channels (rat), P08104 (P08104 whole entry): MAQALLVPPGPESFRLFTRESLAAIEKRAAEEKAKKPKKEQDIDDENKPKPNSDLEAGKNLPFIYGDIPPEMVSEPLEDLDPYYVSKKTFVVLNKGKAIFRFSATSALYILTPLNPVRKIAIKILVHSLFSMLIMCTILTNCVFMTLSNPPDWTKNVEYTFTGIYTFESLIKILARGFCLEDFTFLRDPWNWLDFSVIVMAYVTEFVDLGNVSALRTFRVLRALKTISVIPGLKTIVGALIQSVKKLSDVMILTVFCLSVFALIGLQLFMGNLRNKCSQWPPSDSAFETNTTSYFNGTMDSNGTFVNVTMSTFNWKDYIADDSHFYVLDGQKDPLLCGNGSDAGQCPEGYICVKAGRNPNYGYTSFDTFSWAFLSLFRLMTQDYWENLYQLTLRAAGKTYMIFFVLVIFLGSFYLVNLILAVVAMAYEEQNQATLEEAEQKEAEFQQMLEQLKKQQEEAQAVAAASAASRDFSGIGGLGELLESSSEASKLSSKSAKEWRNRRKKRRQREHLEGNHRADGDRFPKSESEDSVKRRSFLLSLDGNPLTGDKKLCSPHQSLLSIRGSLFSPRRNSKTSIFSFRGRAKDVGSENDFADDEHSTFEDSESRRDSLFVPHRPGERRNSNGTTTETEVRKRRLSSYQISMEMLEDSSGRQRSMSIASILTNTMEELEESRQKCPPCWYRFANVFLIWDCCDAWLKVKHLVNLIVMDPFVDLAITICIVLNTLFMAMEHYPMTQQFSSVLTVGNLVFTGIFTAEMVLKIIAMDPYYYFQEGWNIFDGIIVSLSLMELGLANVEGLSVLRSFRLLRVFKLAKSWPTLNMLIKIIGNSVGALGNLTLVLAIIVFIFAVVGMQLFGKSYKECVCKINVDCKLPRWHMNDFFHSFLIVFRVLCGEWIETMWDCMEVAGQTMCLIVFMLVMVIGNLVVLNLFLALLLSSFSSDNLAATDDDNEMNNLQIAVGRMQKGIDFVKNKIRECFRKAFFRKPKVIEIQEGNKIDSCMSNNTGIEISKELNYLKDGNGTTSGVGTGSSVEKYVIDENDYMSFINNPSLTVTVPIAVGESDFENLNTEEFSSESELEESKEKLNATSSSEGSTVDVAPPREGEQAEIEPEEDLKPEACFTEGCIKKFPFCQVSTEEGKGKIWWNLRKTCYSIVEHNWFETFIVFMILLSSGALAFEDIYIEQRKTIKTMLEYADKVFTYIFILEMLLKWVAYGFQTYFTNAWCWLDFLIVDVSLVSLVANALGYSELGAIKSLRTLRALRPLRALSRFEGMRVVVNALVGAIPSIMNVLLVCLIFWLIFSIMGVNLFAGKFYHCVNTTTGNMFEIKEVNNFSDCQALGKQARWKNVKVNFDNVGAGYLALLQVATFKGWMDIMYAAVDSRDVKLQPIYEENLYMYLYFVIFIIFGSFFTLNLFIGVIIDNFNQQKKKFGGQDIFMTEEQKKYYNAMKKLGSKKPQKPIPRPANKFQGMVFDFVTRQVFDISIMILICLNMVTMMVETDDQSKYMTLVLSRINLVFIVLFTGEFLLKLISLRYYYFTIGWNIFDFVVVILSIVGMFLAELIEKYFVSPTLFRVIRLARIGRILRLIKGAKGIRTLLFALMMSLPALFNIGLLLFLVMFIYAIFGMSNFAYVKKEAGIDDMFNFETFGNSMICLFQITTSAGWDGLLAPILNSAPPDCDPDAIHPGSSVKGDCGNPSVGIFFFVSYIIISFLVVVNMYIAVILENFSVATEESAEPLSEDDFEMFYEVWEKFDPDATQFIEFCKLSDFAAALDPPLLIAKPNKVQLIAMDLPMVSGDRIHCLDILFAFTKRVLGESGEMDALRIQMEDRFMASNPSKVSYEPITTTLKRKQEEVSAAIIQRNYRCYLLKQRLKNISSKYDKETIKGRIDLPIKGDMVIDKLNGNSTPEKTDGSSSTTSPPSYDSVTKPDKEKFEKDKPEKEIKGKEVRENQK

DCLGFMRKCIPDNDKCCRPNLVCSRTHKWCKYVF (modifications not checked) [Peptide E]: the IC50 Nav1.3 (µM); inhibition of channel current, patch clamp is 0.31 µM.
